Results: patent US6605426B1, “Compounds, methods of screening, and in vitro and in vivo uses involving anti-apoptotic genes and anti-apoptotic gene products” (priority 1998, dated 2003)

B1: pUL36AD169-early: pUL36 of an early (pre-1982) passage of HCMV strain AD169; Cys131 (protein)
chain: MDDLRDTLMAYGCIAIRAGDFNGLNDFLEQECGTRLHVAWPERCFIQLRSRSALGPFVGKMGTVCSQGAYVCCQEYLHPFGFVEGPGFMRYQLIVLIGQRGGIYCYDDLRDCVYELAPTMKDFLRNGFRHCDHFHTMRDYQRPMVQYDDYWNAVMLYRGDVESLSAEVTKRGYASYTIDDPFDECPDTHFAFWTHNTEVMKFKETSFSVVRAGGSIQTMELMIRTVPRITCYHQLLGALGHEVPERKEFLVRQYVLVDTFGVVYGYDPAMDAVYRLAEDVVMFTCVMGKKGHRNHRFSGRREAIVRLEKTPTCQHPKKTPDPMIMFDEDDDDELSLPRNVMTHEEAESRLYDAITENLMHCVKLVTTDSPLATHLWPQELQALCDSPALSLCTDDVEGVRQKLRARTGSLHHFELSYRFHDEDPETYMGFLWDIPSCDRCVRRRRFKVCDVGRRHIIPGAANGMPPLTPPHVYMNN
B2: pUL37Smyc: pUL37S fused at its C-terminus with a c-myc-epitope tag; constitutively expressed in HeLa/UL37x1#3 cells (protein)
chain: MSPVYVNLLGSVGLLAFWYFSYRWIQRKRLEDPLPPWLRKKKACALTRRSRHRLRRQHGVIDGENSETERSVDLVAALLAEAGEESVTEDTEREDTEEEREDEEEENEARTPEVNPIDAEGLSGLAREACEALKKALRRHRFLWQRRQRARMLQHNGPQQSHQ

How the values were obtained:
HeLa cells [1] = assay: Transient transfection apoptosis assay in HeLa cells (anti-Fas antibody+CHX or TNF-α+CHX); format: cell-based, human; conditions: transiently transfected HeLa cells; anti-Fas antibody+CHX 24 h; surviving cells scored
Protocol: Tumor necrosis factor receptor 1 (TNF-R1)-mediated apoptosis was induced by exposure of HeLa and MRC-5 cells to tumor necrosis factor-α (TNF-α) (Sigma, 10-60 ng/mL)+CHX (10-30 μg/mL). Fas-mediated apoptosis was induced by exposure of cells to an anti-Fas antibody (Coulter, 7C11 antibody at 0.2-4 μg/mL)+CHX (10-30 μg/mL). The degree of cell death was determined by the visual scoring of surviving cells, in representative fields, under a phase microscope. A similar degree of cell death occurred in fibroblasts when examined 5 to 28 h after the start of exposure, or a similar degree of cell death occurred in HeLa cells when examined 9-28 h after the start of exposure. Further, a similar degree of cell death for a given reagent was produced when any concentration within the range indicated above was used.
The degree of cell death in cells transfected with an indicator plasmid expressing E. coli β-galactosidase was determined by either a β-galactosidase ELISA (Boehringer Mannheim), in accordance with the manufacturer's recommendations, or by visually scoring, under a microscope, positive blue cells, expressing β-galactosidase, after staining them with X-gal.
HeLa cells were transiently co-transfected with an expression plasmid vector, pME18S, carrying a polynucleotide sequence encoding IE1 or IE2 (FIG. 5, “IE1” and “IE2,” respectively), and a vector carrying the β-galactosidase gene (pCMVβ, Clontech). As a positive control, HeLa cells were transiently co-transfected with pCMVβ and a vector carrying a polynucleotide sequence encoding an anti-apoptotic polypeptide, such as the adenovirus E1B 19K or baculovirus p35.
Expression of IE1 (approx. 72 kDa) and IE2 (approx. 86 kDa) in the transfected HeLa cells was confirmed by Western blot analysis, by immunofluorescence visually examined under a fluorescence microscope, and by transactivation activity which led to an elevation of the vector-CMV-promoter-driven β-galactosidase expression which was increased 2- to 5-fold, as measured by a β-galactosidase ELISA (data not shown). Apoptosis was induced by incubating the transfected cells for 24 h with either TNF-α+CHX, or anti-Fas antibody+CHX. The surviving cells were stained with X-gal, a chromogenic substrate of β-galactosidase, and then the blue-stained cells were scored (FIG. 5).
To identify HCMV genes that can suppress apoptosis induced by Fas-ligation, the present inventors established a transient transfection assay in HeLa cells. The HeLa cells can be transfected at much higher efficiency than MRC-5 cells and are similar in their sensitivity towards anti-Fas antibody and TNF-α treatment. Enhanced survival of HeLa cells following anti-Fas antibody+CHX treatment was detected by elevated β-galactosidase (β-gal) levels produced by a transfected β-gal marker plasmid.
The deletion mutants were transiently expressed in HeLa cells, cultured in DMEM supplemented with 10% fetal bovine serum, and assayed for their ability to block Fas- or TNF-R1-mediated apoptosis. Transfections and apoptosis assays were performed as previously described (Goldmacher et al., 1999). Briefly, cells were transiently transfected with the expression vectors (purified with a Qiagen plasmid purification kit) using SuperFect transfection reagent (Qiagen) in accordance with the manufacturer's protocol. After 24 hours, cells were exposed to anti-Fas 7C11 antibody (Coulter, 0.5 μg/ml)+cyclohexamide (Sigma, 10 μg/ml) for 24 hours.
A genomic DNA library was cloned into pZeoSV2(+) plasmid (Invitrogen). Ten cosmids, pCM1007, pCM1015, pCM1017, pCM1029, pCM1035, pCM1039, pCM1040, pCM1052, pCM1058, and pCM1072, covering the AD169 genome (Fleckenstein et al., 1982, which is incorporated herein by reference), and pON2601 Toledo cosmid (Cha et al., 1996, which is incorporated herein by reference) containing unique HCMV sequences, were mixed in equal amounts and partially digested with Sau3AI (New England Biolabs, Beverly, Mass.). […]

pro-domain of caspase 8 = target: T1, pro-domain of caspase 8 (Homo sapiens, UniProt Q14790); assay: Co-precipitation in co-transfected 293T cells (anti-HA IP, anti-myc blot); format: binding; conditions: HA-tagged pro-domain
T1 construct: a truncated pro-caspase 8, containing only its HA-tagged pro-domain region; expressed in transfected cells; host or cells: 293T cells co-transfected with pUL36AD169-earlymyc or pUL36AD169-ATCCmyc
T1 sequence (Q14790 1-216 limits assumed): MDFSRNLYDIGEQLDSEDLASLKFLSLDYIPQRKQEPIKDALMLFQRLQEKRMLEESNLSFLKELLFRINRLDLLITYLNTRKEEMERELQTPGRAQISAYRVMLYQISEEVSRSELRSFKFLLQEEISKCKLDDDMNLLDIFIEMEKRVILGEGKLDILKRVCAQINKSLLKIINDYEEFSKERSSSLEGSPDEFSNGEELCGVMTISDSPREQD
Excerpt: (§1) Pro-caspase 8 was detected on the pUL36-containing beads (lane 4), but not on the control beads (lane 2), while the lysates from all these cells contained similar amounts of pro-caspase 8 (compare lanes 1 and 3). […] To test this hypothesis, 293T cells were co-transfected with pUL36AD169-earlymyc and with a truncated pro-caspase 8, containing only its HA-tagged pro-domain region. pUL36AD169-earlymyc is expressed by a fusion gene comprising a UL36 ORF isolated from a pre-1982 passage of CMVAD169 and the carboxy-linked myc epitope tag. The cells were lysed as above, and anti-HA antibody was used to immunoprecipitate the caspase 8 pro-domain. Anti-myc antibodies were then used to probe a Western blot for the inclusion of pUL36 with the immunoprecipitated material. Control cells were transfected with pUL36AD169-earlymyc with either the empty vector (negative control), or with HA-tagged pro-caspase 8 (positive control). Additional cells were co-transfected with the non-functional mutant pUL36AD169-ATCCmyc with either the HA-pro-domain, the empty vector or HA-pro-caspase 8.

[2] = target: T2, full-length pro-caspase 8 (Homo sapiens, UniProt Q14790); assay: as above; format: binding; conditions: HA-tagged pro-caspase 8
T2 construct: HA-tagged full-length pro-caspase 8 (lanes 5 and 6); expressed in transfected cells; host or cells: 293T cells co-transfected with pUL36AD169-earlymyc or pUL36AD169-ATCCmyc
T2 sequence (Q14790 whole entry): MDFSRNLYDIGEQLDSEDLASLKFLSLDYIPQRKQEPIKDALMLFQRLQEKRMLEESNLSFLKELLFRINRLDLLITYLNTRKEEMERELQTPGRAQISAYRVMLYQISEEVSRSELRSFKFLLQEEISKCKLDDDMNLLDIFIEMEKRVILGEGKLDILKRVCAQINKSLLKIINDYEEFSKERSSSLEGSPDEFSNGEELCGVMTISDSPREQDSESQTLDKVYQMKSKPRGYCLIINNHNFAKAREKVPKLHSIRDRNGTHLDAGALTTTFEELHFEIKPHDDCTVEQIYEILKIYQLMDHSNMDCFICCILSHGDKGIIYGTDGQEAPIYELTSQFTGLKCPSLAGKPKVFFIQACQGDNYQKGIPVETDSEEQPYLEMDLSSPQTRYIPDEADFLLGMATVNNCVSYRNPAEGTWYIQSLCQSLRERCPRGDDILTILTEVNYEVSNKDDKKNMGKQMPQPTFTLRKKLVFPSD
Excerpt: as §1

HeLa/UL37x1#3 cells = assay: Dominant-negative assay: pUL37S deletion mutants in HeLa/UL37x1#3 cells, β-galactosidase ELISA; format: cell-based, human; conditions: HeLa/UL37S #3 cells transfected with the empty vector; anti-Fas plus cyclohexamide 24 h
Protocol: 24 h after co-transfection, the cells were either exposed for an additional 24 h to anti-Fas antibody, in the presence of cyclohexamide (FIGS. 11A and 11B, closed bars) or left untreated (FIGS. 11A and 11B, open bars). The surviving cells were than quantified by determining the β-galactosidase levels with a β-galactosidase ELISA (Boehringer Mannheim). […] The control HeLa/pcDNA3-A cells were sensitive to Fas-mediated apoptosis, and this sensitivity was not affected by the expression of the deletion mutants.
Apoptosis was induced in the cell line HeLa/UL37x1#3 (HeLa cells transfected with UL37x1, clone No. 3), that constitutively expresses pUL37Smyc and is resistant to apoptosis, through the addition of anti-Fas antibodies and cyclohexamide to the culture medium. To identify dominant-negative mutants, HeLa/UL37x1#3 cells were co-transfected with the lacZ (encoding β-galactosidase) indicator plasmid vector, together with either an expression vector for a pUL37S deletion mutant or the empty plasmid vector, pcDNA3. […]
One day after the transfection, cells were treated with anti-Fas antibody plus cyclohexamide for 24 h. Cell survival was then assessed by measuring spectrophotometrically the level of β-galactosidase expression, as described in Example 1. […]

HeLa cells [3] = assay: Apoptosis resistance of HeLa clones stably expressing pUL37Smyc; format: cell-based, human
Excerpt: In a preferred embodiment, HeLa clones continuously (as opposed to transiently) express the version of pUL37s tagged with the C-terminal myc-peptide (amino acids 408-421 within the carboxy terminal domain of human c-Myc) generated by stable transfection with either an expression plasmid containing UL37S alone, or in a mixture with an expression plasmid coding for puromycin-N-acetyl-transferase such as pPUR (Clontech, Palo Alto, Calif.). Following the transfection, drug-resistant clones are selected in medium containing G418 (0.7 mg/mL) or in medium containing puromycin (1 μg/ml), and then the clones are screened for the expression of pUL36-myc-tagged and pUL37S-myc-tagged polypeptides, respectively, by Western analysis with 9E10 anti-Myc antibody (Santa Cruz Biotechnology, Inc., Santa Cruz, Calif.). In using this approach, the present inventors isolated four clones that expressed pUL37S-myc (designated as HeLa/UL37S). These clones were then used to conduct further studies reported in Example 9. Also, four G418-resistant clones of HeLa cells stably transfected with pcDNA3/myc (empty vector, control) were isolated by similar procedures, two with G418 (HeLa/G418) and two with puromycin (HeLa/puro), and used as a negative control in the Western blot analysis and experiments studying the anti-apoptotic activity of the clones.
Three transfected G418-resistant HeLa clones were isolated that stably express pUL37S myc (designated HeLa/UL37×1myc #3, #8, and #N1), as detected by Western blot analysis with the 9E10 anti-myc antibody (Evan et al., 1985, which is incorporated herein by reference) (FIG. 8A). In parallel, three HeLa clones were isolated following stable transfections with the pcDNA3 vector alone (designated HeLa/pcDNA3-A, -B, and —C). […] While virtually all of the HeLa/pcDNA3-A control cells died following an overnight exposure to anti-Fas antibody+CHX or TNF-α+CHX, only a small fraction of the pUL37Smyc-expressing cells underwent apoptosis after an overnight exposure to these agents FIG. 8B). Moreover, most of the pUL37Smyc-expressing cells continued to survive for more than 3 days of culturing in the presence of either anti-Fas antibody+CHX or TNF-α+CHX.
The present inventors tested whether pUL37S can inhibit apoptosis triggered by other stimuli. […] Thus, pUL37S is a broadly acting inhibitor of apoptosis that can inhibit or diminish cell death induced by a variety of cytotoxic agents.

Molecule	anti-apoptotic activity: protection against Fas-mediated apoptosis (HeLa cells [1])	co-precipitation with the pro-domain of caspase 8 (pro-domain of caspase 8)	co-precipitation with full-length pro-caspase 8 [2]	β-gal signal compared to untreated cells (HeLa/UL37x1#3 cells)	resistance to apoptosis induced by doxorubicin (HeLa cells [3]; doxorubicin 1, 3, and 6 μM, 24 h, trypan blue exclusion)	duration of survival in culture with apoptotic stimulus (HeLa cells [3]; in the presence of either anti-Fas antibody+CHX or TNF-α+CHX)	resistance to TNF-R1-mediated apoptosis (HeLa cells [3]; stable HeLa clones, TNF-α+CHX)	resistance to Fas-mediated apoptosis (HeLa cells [3]; stable HeLa clones, anti-Fas antibody+CHX)
B1	effective death suppressors	co-precipitated	co-precipitated					
B2				about 40%	substantially more resistant	more than 3 days	resistant	resistant
